Target: Human TCTP (translationally controlled tumor protein) (human) (UniProt P13693)
Assay: SPR, Biacore 8K, human TCTP immobilised on CM5 chip, antibody as analyte, 1:1 model

Chain of Human TCTP (translationally controlled tumor protein) (human) (P13693 whole entry): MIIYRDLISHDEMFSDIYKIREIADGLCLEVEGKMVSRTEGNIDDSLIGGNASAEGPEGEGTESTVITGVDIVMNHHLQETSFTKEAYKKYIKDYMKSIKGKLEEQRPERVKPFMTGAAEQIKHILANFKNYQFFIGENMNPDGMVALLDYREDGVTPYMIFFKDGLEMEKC

B1: 55F3 (antibody, from another filing, V domains shown)
VH: DVQLQESGPGLVKPSQSLSLTCTATGYSIASDYAWNWIRQFPGNKLEWMGYINYSGSTGYNPSLKSRISITRDTSKNQFFLQLNSVTTEDTATYYCARFEAGYWGQGTTLTVSS
VL: DIKMTQSPSSMSASLGERVTITCKASQDINRYLSWFQQKPGKSPKTLIYRANRLVDGVPSRFSGSGSGQDYSLTISSLEYGDMGIYYCLQYNEFPLTFGAGTKLELKR
- Kd: 263 nM

— patent US20250388694A1
